According to US12305177B2, “Methods and platforms for sustainable high yield terpenoid production” (Purdue Research Foundation, priority 2019, dated 2025):

Assays:
[1] = substrate: CC(C)=CCOP(=O)(O)OP(=O)(O)O; assay: purified protein, by the assay type; conditions: 100 mM TAPS pH 8.5, 10 mM MgCl2, 37° C., means ± SD, n = 3, pH 8.5, 37.0 °C
[2] = substrate: CC(C)=CCC/C(C)=C/CC/C(C)=C/CO[P@@](=O)(O)OP(=O)(O)O; assay: purified protein, by the assay type; conditions: 100 mM TAPS pH 8.5, 10 mM MgCl2, 37° C., means ± SD, n = 3, pH 8.5, 37.0 °C
[3] = substrate: CC(C)=CCOP(=O)(O)O; assay: NtIPK kinetics, lactate dehydrogenase/pyruvate kinase coupled assay; format: biochemical; conditions: other: substrate of N. tabacum IPK, pH 7.5, 30° C.
[4] = substrate: CC(C)=CCC/C(C)=C/COP(=O)(O)O; assay: as above; format: biochemical; conditions: other: substrate of N. tabacum IPK, pH 7.5, 30° C.
[5] = substrate: C=C(C)CCOP(=O)(O)O; assay: purified protein, by the assay type; conditions: other: substrate of N. tabacum IPK; pH 7.5, 30° C.; pH 7.5; 30.0 °C

B1: A. thaliana Nudx1 (Arabidopsis thaliana) (protein)
chain: MSTGEAIPRVAVVVFILNGNSILLGRRRSSIGNSTFALPGGHLEFGESFEECAAREVMEETGLKIEKMKLLTVTNNVFKEAPTPSHYVSVSIRAVLVDPSQEPKNMEPEKCEGWDWYDWENLPKPLFWPLEKLFGSGFNPFTHGGGD
[1]; other: substrate of AtNudx1
  Km: 10.7 ± 1.8 µM
  kcat: 1.7 ± 0.07 s⁻¹
  kcat/Km: 1.6 × 10^5 ± 0.3 M^−1 s^−1
[2]; other: substrate of AtNudx1
  Km: 8.7 ± 1.6 µM
  kcat: 1.35 ± 0.06 s⁻¹
  kcat/Km: 1.6 × 10^5 ± 0.3 M^−1 s^−1

B2: N. tabacum IPK (Nicotiana tabacum) (protein)
chain: MEQNKASAPVPPTKRVRCIVKLGGAAITCKNKLETIDEENLTEVSSQLRQALIPNSDSAKILGMDWSKRPGQSEPPSFVDEFSDQPVADSESFIVVHGAGSFGHFQASKSGVHKGGLSRPLVKAGFVATRISVTSLNLEIVRALAREGIPSIGMSPFSCGWSTCQRNMTEADISMVIKAIDAGFIPVLHGDAVLDTLQECTILSGDVIIRHLAAELKPEFVVFLTDVLGVYDRPPVEPGAVLIREIAVREDGSWSVVKPRLEDTSKPVEFTVAAHDTTGGMVTKITEAAMIAKLGIDVYITKVGAGRNGPLSESPEWNLERQHT
[3]
  Km: 8.5 ± 2.3 µM
  kcat: 1.2 ± 0.06 s⁻¹
  kcat/Km: 140000 M⁻¹ s⁻¹
[4]
  Km: 100 ± 60 µM
  kcat: 0.0017 ± 0.0002 s⁻¹
  kcat/Km: 17 M⁻¹ s⁻¹
[5]
  Km: 4.0 ± 1.5 µM
  kcat: 0.93 s⁻¹
  kcat/Km: 230000 M⁻¹ s⁻¹

B3: A. thaliana Nudx3 (Arabidopsis thaliana) (protein)
chain: MAEEHFDVLTKSGEKTGVSKPRGEVHRDGDYHRAVHVWIFVETTQQLLLQLRSDDKDSWPGQWDISSAGHISAGDTSLLSAQRELEEELGVKLPKDAFEKIFVFLQECVTNDGKFINNEFNDVYLVTILHPIPLEAFTLQKEEVSAVKYVPYEEYRNFLSKEDPAYVPYDVNGEYGKLFDIIRQRCQVNTEARSLSLQKQLQRYSPVTLEAKLTELSEADQKALGLIVKAAKIMDDIFYEQVWNSNPALRDWLKDHANASKLDKLKWDYFTINKSPWSSLDENEAFLSTADSAVKLLPGATKAIAGWKGLEYRAAFPVTKPPGANFYPPDMDKMEFTLWLNGLTEEQKHAATGFFSVIKRRSEANLDASDHLASSTKKLPDSNSDLYSIPYSEIYRPFLKKASEFLQKAGDLVSSPSLKKLLHSKAEAFLSNEYYESDIAWMDLDSKLDITIGPYETYEDEIFGYKATFETFIGIRDDKATADLKLFGDNLKLLEDNLPLESVYKSTDVSAAPIRVIQLIYNSGDVKGPQTVAYNLPNDEKIVKDRGTSMVMLKNVQEAKFEHILKPIAEITISKEQRGLVDFDSFFTHTICHECCHGIGPHTITLPGGQTSTVRKELQEVHSAMEEAKADIVGLWALKFLITKGLLSKSMVESMYVSFLAGCFRSIRFGLTEAHGKGQALQFNYLYEKGAFVFHEDSTFSVDFAKIEGAVESLSHEILTIQGKGDKNAATLLLNKYCTITGPLKTALENLERVKVPVDISPTFPLAEALMN
[1]; other: substrate of AtNudx3
  Km: 44 ± 8 µM
  kcat: 7.1 ± 0.3 s⁻¹
  kcat/Km: 1.6 × 10^5 ± 0.3 M^−1 s^−1
[2]; other: substrate of AtNudx3
  Km: 58 ± 10 µM
  kcat: 3.3 ± 0.3 s⁻¹
  kcat/Km: 5.7 × 10^4 ± 0.5 M^−1 s^−1
